Results on 22 molecules are retold here after paper PMC3713010, “Sox2 Transcriptionally Regulates Pqbp1, an Intellectual Disability-Microcephaly Causative Gene, in Neural Stem Progenitor Cells”.

Holding throughout (test): EMSA; 10% glycerol, 20 mM HEPES pH 7.8, 45 mM KCl, 10 mM NaCl, 1 mM EDTA, 1 mM DTT, 0.2 ug/uL BSA, 0.1% NP-40, 50 ng poly-dIdC; 20 ng each GST protein; room temperature 30 min (heterodimers 4 C); 6% PAGE 0.25x TBE
Common to all, as to conditions: protein: recombinant; tags: GST (N-terminal, pGEX-6P-1); label: 32P-dCTP fill-in of the 5' (dG)5 overhangs of both strands (Methods; control probes are given with GGG)
A general note: A gel shift assay detects complexes by their altered migration in electrophoresis.

For series [1], the target named is Pax6 DNA-binding domain (BD-Pax6) (Mus musculus (B6), UniProt P63015 190-289). The method, boiled down: (§1)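 Transcription factor DNA-binding domains carrying a GST tag were expressed in E. coli BL21, purified on glutathione-sepharose and tested against annealed candidate cis-element oligonucleotides labelled with 32P-dCTP. Each reaction held 20 ng protein, 40,000–50,000 cpm probe and 50 ng poly-dIdC in HEPES/KCl glycerol buffer with BSA and detergent, incubated 30 min at room temperature, then run on 6% polyacrylamide in 0.25×TBE at 4°C. DNA binding was scored as the radioactivity of the band in the expected shift region, read on a phosphor imager.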
Sequence of Pax6 DNA-binding domain (BD-Pax6) (P63015 190-289): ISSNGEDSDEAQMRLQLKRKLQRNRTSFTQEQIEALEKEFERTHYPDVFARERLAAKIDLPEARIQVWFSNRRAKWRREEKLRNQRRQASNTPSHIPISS

Series [2] has as its target T1, Oct6 DNA-binding domain (BD-Oct6) (Mus musculus (B6), UniProt P21952 317-416).
T1 sequence: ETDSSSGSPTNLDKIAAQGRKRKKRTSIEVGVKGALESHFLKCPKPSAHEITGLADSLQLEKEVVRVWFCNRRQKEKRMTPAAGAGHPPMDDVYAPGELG
The method, boiled down:
as §1

In series [3] the target is T2, Brn2 DNA-binding domain (BD-Brn2) (Mus musculus (B6), UniProt P31360 336-435).
T2 sequence: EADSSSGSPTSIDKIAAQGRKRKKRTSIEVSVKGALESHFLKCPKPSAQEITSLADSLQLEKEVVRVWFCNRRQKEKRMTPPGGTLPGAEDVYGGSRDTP
The method, boiled down:
as §1

B1: 3 (dsDNA)
DNA 1: GGGGGACCTATACTTTGTTTTTATTGCCTAGTAATCCCCC
DNA 2: GGGGGATTACTAGGCAATAAAAACAAAGTATAGGTCCCCC
For B1, the binding result in series [1], in series [2] and in series [3] was “no binding” throughout.

B2: 122 (dsDNA)
DNA 1: GGGGGGAAAAGGATTTGTACTTAAATAAGCACCTGGCCCCCC
DNA 2: GGGGGGCCAGGTGCTTATTTAAGTACAAATCCTTTTCCCCCC
As for B2, the binding result in series [1] was “no binding”; in series [2], “binds”; in series [3], “binds”.

B3: 6 (dsDNA)
DNA 1: GGGGGAGGACTTAATTGTTCGCATTTCTGTATTCTGCCCCC
DNA 2: GGGGGCAGAATACAGAAATGCGAACAATTAAGTCCTCCCCC
With B3, the results for the binding result in series [1], in series [2] and in series [3] were “no binding”, “binds” and “binds”, respectively.

B4: 123 (dsDNA)
DNA 1: GGGGGAGTGCTATTTTGTCGAGAAATTGTAGAAGACACCCCC
DNA 2: GGGGGTGTCTTCTACAATTTCTCGACAAAATAGCACTCCCCC
As for B4, the binding result in series [1], in series [2] and in series [3] was “no binding” throughout.

B5: 7 (dsDNA)
DNA 1: GGGGGCAACCACCTCTAAATGCCTACAAATTGTATGGTCATCCCCC
DNA 2: GGGGGATGACCATACAATTTGTAGGCATTTAGAGGTGGTTGCCCCC
For the molecule B5, the binding result in series [1], in series [2] and in series [3] was “no binding” throughout.

B6: 119 (dsDNA)
DNA 1: GGGGGCCGATCGCTTTGTTCTACATTTTATGTTCTATCCCCC
DNA 2: GGGGGATAGAACATAAAATGTAGAACAAAGCGATCGGCCCCC
Take B6: the binding result in series [1], in series [2] and in series [3] was “no binding” throughout.

B7: 118 (dsDNA)
DNA 1: GGGGGGACAAGGGTCAATTTGCTAGACAAAGATCTTCACCCCC
DNA 2: GGGGGTGAAGATCTTTGTCTAGCAAATTGACCCTTGTCCCCCC
On to B7, for which the binding result in series [1], in series [2] and in series [3] was “no binding” in each case.

B8: 4b (dsDNA)
DNA 1: GGGGGAGTCTCTGTAAAATTAACAAACAAGTTACCCCCC
DNA 2: GGGGGGTAACTTGTTTGTTAATTTTACAGAGACTCCCCC
With B8, the binding result is recorded as “no binding” in series [1], “binds” in series [2] and “binds” in series [3].

B9: 5 (dsDNA)
DNA 1: GGGGGTGTAGGTCATTGTGGCCTCAAATTTGGTAATGTAACCCCC
DNA 2: GGGGGTTACATTACCAAATTTGAGGCCACAATGACCTACACCCCC
Take B9: the figures for the binding result in series [1], in series [2] and in series [3] were “no binding”, “no binding” and “binds”, respectively.

B10: 125 (dsDNA)
DNA 1: GGGGGGGGATGCAATTGTCAGTCACCTTTCTTGAGCCTGTGGGACCCCC
DNA 2: GGGGGTCCCACAGGCTCAAGAAAGGTGACTGACAATTGCATCCCCCCCC
Consider B10, for which the results for the binding result in series [1], in series [2] and in series [3] were “no binding”, “binds” and “binds”, respectively.

B11: 120 (dsDNA)
DNA 1: GGGGGTCCACACTCTATAATCTCACATTGTTTGGCACCCCCCC
DNA 2: GGGGGGGTGCCAAACAATGTGAGATTATAGAGTGTGGACCCCC
B11: the binding result in series [1] is “no binding”; in series [2], “binds”; in series [3] it was “no binding”.

B12: 12 (dsDNA)
DNA 1: GGGGGAGTATGAGTTTGTATATGTTGATTAACCAAACACTCCCCC
DNA 2: GGGGGAGTGTTTGGTTAATCAACATATACAAACTCATACTCCCCC
B12: the binding result in series [1] is listed as “no binding”; in series [2] it was “no binding”; in series [3], “binds”.

B13: 128 (dsDNA)
DNA 1: GGGGGAATATCAGTGTAATGATTAACAGACAATGGCAGAGGCCCCC
DNA 2: GGGGGCCTCTGCCATTGTCTGTTAATCATTACACTGATATTCCCCC
As to B13, the binding result in series [1] is listed as “binds”; in series [2], “no binding”; in series [3] it was “no binding”.

B14: 121 (dsDNA)
DNA 1: GGGGGGTGCTCAATTTGTGTTAGCTATTACTAGCAAGTCATTAACTCACCCCCC
DNA 2: GGGGGGTGAGTTAATGACTTGCTAGTAATAGCTAACACAAATTGAGCACCCCCC
For the molecule B14, the binding result in series [1], in series [2] and in series [3] was “binds” in each case.

B15: 11 (dsDNA)
DNA 1: GGGGGGTGGGGTACAAAAATGGCCCTTTGTGATCAACTCCCCC
DNA 2: GGGGGAGTTGATCACAAAGGGCCATTTTTGTACCCCACCCCCC
As to B15, the binding result in series [1], in series [2] and in series [3] was “no binding” in each case.

B16: 126 (dsDNA)
DNA 1: GGGGGAATGTTGTCATAATTGAAAAAGACAAAGCACTAATCCCCC
DNA 2: GGGGGATTAGTGCTTTGTCTTTTTCAATTATGACAACATTCCCCC
As for B16, the binding result in series [1], in series [2] and in series [3] was “binds” in each case.

B17: 124 (dsDNA)
DNA 1: GGGGGCTTATGCTTCTATTCTACACAATTCCACAACCCCCC
DNA 2: GGGGGGTTGTGGAATTGTGTAGAATAGAAGCATAAGCCCCC
For B17, the binding result in series [1], in series [2] and in series [3] was “no binding” each time.

B18: 4c (dsDNA)
DNA 1: GGGGGTAAAATTAACAAACAAGTTACATTATCTAATATACACCCCC
DNA 2: GGGGGTGTATATTAGATAATGTAACTTGTTTGTTAATTTTACCCCC
Take B18: the binding result in series [1] is listed as “no binding”; in series [2], “binds”; in series [3] it was “binds”.

B19: 13 (dsDNA)
DNA 1: GGGGGTCTCCTGCTTTGTAGTCACAGAGTAGTCAAGAAGGGCTCCCCC
DNA 2: GGGGGAGCCCTTCTTGACTACTCTGTGACTACAAAGCAGGAGACCCCC
Take B19: the binding result in series [1], in series [2] and in series [3] was “no binding” in each case.

B20: 127 (dsDNA)
DNA 1: GGGGGTTTTGTTTTTTGTTTAAAGCAATAACATATTCAGCCCCC
DNA 2: GGGGGCTGAATATGTTATTGCTTTAAACAAAAAACAAAACCCCC
Turning to B20, the binding result in series [1], in series [2] and in series [3] was “binds” throughout.

B21: 4a (dsDNA)
DNA 1: GGGGGGACTTAATTGTGAGTCTCTGTAAAATTAACAAACAAGTTACCCCCC
DNA 2: GGGGGGTAACTTGTTTGTTAATTTTACAGAGACTCACAATTAAGTCCCCCC
Regarding B21, the results for the binding result in series [1], in series [2] and in series [3] were “no binding”, “binds” and “binds”, respectively.

B22: 8 (dsDNA)
DNA 1: GGGGGGCTGTAACAGAATACCTGACAAAAGCAACTTCCCCC
DNA 2: GGGGGAAGTTGCTTTTGTCAGGTATTCTGTTACAGCCCCCC
For the molecule B22, the binding result in series [1], in series [2] and in series [3] was “no binding” throughout.
